This is an account of results in article PMC4838342 (Nucleic Acids Research, 2015).

For one assay, the target named is H3 115–135 peptide. Nature of the assay: NMR titration; 1H-15N HSQC of 15N-labelled sNASP (41–330, Δ101–159) titrated with H3 115–135 peptide in PBS; 298 K; assignments in 20 mM NaPO4 pH 7.0, 100 mM NaCl, 5 mM β-mercaptoethanol. The note with it: both partners purified.
Another assay concerns the target MBP H3 116–135 (human). Nature of the assay: SEC; analytical gel filtration, Superdex S200 10/300 GL, 20 mM Hepes-KOH pH 7.5, 200 mM sodium chloride; fractions on SDS-PAGE, Coomassie. The note with it: both partners purified.

Chain of H3 115–135 peptide (peptide, as listed by the source): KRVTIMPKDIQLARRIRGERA

B1: sNASP (41–330, Δ101–159) (domain or fragment)
chain: SEAKKLLGLGQKHLVMGDIPAAVNAFQEAASLLGKKYGETANECGEAFFFYGKSLLELARLENKSLQENEEEEIGNLELAWDMLDLAKIIFKRQETKEAQLYAAQAHLKLGEVSVESENYVQAVEEFQSCLNLQEQYLEAHDRLLAETHYQLGLAYGYNSQYDEAVAQFSKSIEVIENRMAVLNEQVKEAEGSSAEYKKEIEELKELLPEIREKIEDAKESQRSGNVAELA
modifications: 15N (and 13C, 2H) isotope labelled
Take B1: the binding result in the assay with H3 115–135 peptide is listed as “binds”.

B2: Sim3 (as used in gel filtration) (natural protein, Schizosaccharomyces pombe, UniProt Q9USQ4 1-396, looked up)
chain: MSSDTKTLENSKGNSATDADTKNPSSSDSRAIEQLVTQGNMAYAQKNYEEAVDKYGQALMQSESIHGSESLENRNVLWLYGKSLFQIAIENSQVLGNALGAKESVSQATESFEEPEAIGSFTFSGQKIENKYTVNEENSSIAHPEKESEEKETNEASPASEEDEDDFNVAWEVLDLTRVMQSKAVDAYPDSKDEKIRLADIYDLLGELSLEIENFSQASQDLKTALEWKEKVYNVSNNTLLSEAHYKLALALEFTNPEDPSNKSRACEHVEKAAEILKNVLNERENEVTDKKGKGKQKAEESTLTSDLENLREMLSELEQKTLDLKHGAPSLEEAVMSKMHESSLLSKDSSSLAQAVAEAVKNANDLGGLVKRKRTKQEVTSSSQKEGPKDKKKKD
notes: source: bacteria, purified
Take B2: the binding result in the assay with MBP H3 116–135 is “binds”.
